Test results as given in the supplement of paper PMC10126150.
± gives the standard deviation of the averaged measurements.

The sequences below were run on ATP (assay: switch fluorescence ratio, 500 uM ATP over buffer (Cy3 cluster intensity, sum of 5 cycles each) (fold (ratio)); higher = stronger signal-on switching upon ATP binding; sequences stand for … in TCGTCGGCAGCGTCAGATGTGTATAAGAGACAGTTTTTTTTTTTTTTTTTTTTTTTTT…TC). Conditions: aptamer strand: ATP DNA aptamer (quencher-CACCTGGGGGAGTATTGCGGAGGAAGG + anchor), 100 nM annealed; ATP concentration: 500 uM.
In short: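 After annealing to 100 nM quencher-labelled ATP aptamer, Cy3-labelled switching-strand clusters on a modified Illumina MiSeq flow-cell were imaged in selection buffer. A second image followed after 15 min with 500 uM ATP at 22 °C, and five such buffer/ATP cycles were done, each separated by NaOH stripping and re-annealing. The fluorescence ratio, averaged per switch-domain sequence, is summed target-cycle over summed buffer-cycle Cy3 intensity per cluster, with clusters outside 100-1000 RFU excluded.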
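Further: ATP exposure 15 min at 22 °C before imaging.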

In order of rising switch fluorescence ratio:
1. CAGGGTGTTG  0.964 ± 0.041
2. CAGAGTTTGA  0.969 ± 0.0047
3. CAGCTCGGTC  0.9687 ± 0.0082
4. CAGGCAGGGT  0.969 ± 0.035
5. CAGGTAAGCG  0.969 ± 0.051
6. CAGGCTGACC  0.974 ± 0.025
7. CAGGGTGTGG  0.976 ± 0.014
8. CAGAGAGCGG  0.9815 ± 0.0031
9. CAGAACGTTG  0.983 ± 0.016
10. CAGATTGATG  0.983 ± 0.043
11. CAGGCTTTTA  0.983 ± 0.028
12. CAGCCTGGGC  0.984 ± 0.016
13. CAGGAACTTA  0.9843 ± 0.0052
14. CAGGGGGCGT  0.984 ± 0.0037
15. CAGAGAGTTT  0.9851 ± 0.0044
16. CAGGCTGGGC  0.9862 ± 0.008
17. CAGAGGAGGC  0.987 ± 0.016
18. CAGGCGGCG  0.991 ± 0.017
19. CAGGTATGT  0.991 ± 0.015
20. CAGGATGTGC  0.992 ± 0.032
21. CAGGTTTAAA  0.992 ± 0.034
22. CAGACAGTTT  0.993 ± 0.013
23. CAGAGGCCAG  0.993 ± 0.025
24. CAGGGTGGTA  0.9934 ± 0.0048
25. CAGGTCGGCT  0.995 ± 0.052
26. CAGAGCGGGG  0.998 ± 0.023
27. CAGAGGAACT  0.999 ± 0.035
28. CAGGATGAAT  0.999 ± 0.033
29. CAGGGGTGGG  0.999 ± 0.058
30. CAGAAAATGG  1 ± 0.012
31. CAGACCTCGT  1 ± 0.013
32. CAGACTGGGG  1 ± 0.039
33. CAGATTGGGG  1 ± 0.025
34. CAGATTGTGT  1 ± 0.039
35. CAGGAAAATT  1 ± 0.032
36. CAGGATAGGC  1.003 ± 0.0044
37. CAGGGACTGG  1 ± 0.072
38. CAGGGAGAGG  1 ± 0.011
39. CACTTTTTTT  1.01 ± 0.063
40. CAGAAATATT  1.01 ± 0.075
41. CAGAAATTGG  1.013 ± 0.01
42. CAGAACTGCG  1.01 ± 0.015
43. CAGAGAGCGT  1.008 ± 0.0068
44. CAGAGGTCGT  1.013 ± 0.0081
45. CAGATCACGA  1.01 ± 0.017
46. CAGATTCGAG  1.008 ± 0.01
47. CAGCTGCTGC  1.014 ± 0.0051
48. CAGGACTGGG  1.01 ± 0.0056
49. CAGGCAGATG  1.01 ± 0.015
50. CAGGCCGGAG  1.01 ± 0.022
51. CAGGCGACGG  1.01 ± 0.033
52. CAGGGGGCTA  1.01 ± 0.067
53. CAGGGGGGGA  1.01 ± 0.044
54. CAGGTCCTTT  1.01 ± 0.025
55. CACTTTGGTT  1.02 ± 0.011
56. CAGAGGGCAG  1.02 ± 0.047
57. CAGATCAAGT  1.016 ± 0.0034
58. CAGATGGGAG  1.02 ± 0.014
59. CAGATGGTGT  1.02 ± 0.015
60. CAGCCGGATG  1.02 ± 0.028
61. CAGCGGGACG  1.02 ± 0.035
62. CAGGACGGGT  1.02 ± 0.03
63. CAGGGACGGC  1.02 ± 0.012
64. CAGGGGTATA  1.02 ± 0.024
65. CAGGTCCGGG  1.02 ± 0.018
66. CACTTGGGCG  1.033 ± 0.0077
67. CAGAGTTCGG  1.03 ± 0.015
68. CAGCTGGGAG  1.03 ± 0.011
69. CAGGACACTA  1.03 ± 0.026
70. CAGGACTGCA  1.028 ± 0.0039
71. CAGGCTATTT  1.03 ± 0.049
72. CAGGGACCTG  1.03 ± 0.032
73. CAGCCCTATA  1.04 ± 0.047
74. CAGCGGGTCT  1.04 ± 0.054
75. CAGCGTATTG  1.04 ± 0.037
76. CAGGGTGGTC  1.04 ± 0.0048
77. CAGAGGGAAT  1.05 ± 0.032
78. CAGCAGCTGG  1.05 ± 0.034
79. CAGGGGGCAG  1.05 ± 0.07
80. CAGAGAGGTG  1.07 ± 0.041
81. CAGGGAATAG  1.07 ± 0.049
82. CAGCATAGAT  1.08 ± 0.023
83. CAGGCATTAT  1.08 ± 0.043
84. CAGAACGGCA  1.095 ± 0.0092
85. CAGATAGGTT  1.09 ± 0.14
86. CAGAGGGTGT  1.12 ± 0.032
87. CAGCAAGGGA  1.12 ± 0.025
88. CAGGGCAAGG  1.12 ± 0.08
89. CAGGTTGGAG  1.15 ± 0.24
90. CAGCACGATA  1.1615 ± 0.00014
91. CAGGACACCT  1.17 ± 0.034
92. CAGCACAGGG  1.18 ± 0.017
93. CAGGCAGTAA  1.18 ± 0.073
94. CACTTAGGTG  1.19 ± 0.032
95. CAGGGATAGT  1.26 ± 0.32
96. CAGCTTCCCC  1.29 ± 0.42
97. CAGGTGAGAC  1.31 ± 0.04
98. CAGAAGCGAT  1.33 ± 0.025
99. CAGAACGCTG  1.35 ± 0.12
100. CAGCGCATTA  2.01 ± 0.11
